In US20240174727A1, “LONG-ACTING NATRIURETIC PEPTIDES AND USES THEREOF” (Eli Lilly and Company, priority 2022, published 2024):
Numbered stars: 1 amine (or outer) side, 2 acyl side, 3 side chain; on linkers, the order of the positions; unused ones are H or OH. Bridge positions count the residues as written; N and C are the ends. Square brackets hold non-standard residues; d marks the D form. Ends that are not written are not given here. * marks the point of attachment. thioacetal = thioacetal linkage between two cysteines (intrachain bond at the bracketed Cys); C20 diacid = O=C(O)CCCCCCCCCCCCCCCCCCC(=O)*; γGlu = O=C(O)[C@H](CCC(=O)[*:2])N[*:1]; 4Pal = N[C@@H](Cc1ccncc1)C(=O)O; βAla = NCCC(=O)O

Legend:
human NPRA = molecular target: T1, human NPRA (human, UniProt P16066 33-1061); experiment: cell-based or functional assay
T1 sequence (looked up): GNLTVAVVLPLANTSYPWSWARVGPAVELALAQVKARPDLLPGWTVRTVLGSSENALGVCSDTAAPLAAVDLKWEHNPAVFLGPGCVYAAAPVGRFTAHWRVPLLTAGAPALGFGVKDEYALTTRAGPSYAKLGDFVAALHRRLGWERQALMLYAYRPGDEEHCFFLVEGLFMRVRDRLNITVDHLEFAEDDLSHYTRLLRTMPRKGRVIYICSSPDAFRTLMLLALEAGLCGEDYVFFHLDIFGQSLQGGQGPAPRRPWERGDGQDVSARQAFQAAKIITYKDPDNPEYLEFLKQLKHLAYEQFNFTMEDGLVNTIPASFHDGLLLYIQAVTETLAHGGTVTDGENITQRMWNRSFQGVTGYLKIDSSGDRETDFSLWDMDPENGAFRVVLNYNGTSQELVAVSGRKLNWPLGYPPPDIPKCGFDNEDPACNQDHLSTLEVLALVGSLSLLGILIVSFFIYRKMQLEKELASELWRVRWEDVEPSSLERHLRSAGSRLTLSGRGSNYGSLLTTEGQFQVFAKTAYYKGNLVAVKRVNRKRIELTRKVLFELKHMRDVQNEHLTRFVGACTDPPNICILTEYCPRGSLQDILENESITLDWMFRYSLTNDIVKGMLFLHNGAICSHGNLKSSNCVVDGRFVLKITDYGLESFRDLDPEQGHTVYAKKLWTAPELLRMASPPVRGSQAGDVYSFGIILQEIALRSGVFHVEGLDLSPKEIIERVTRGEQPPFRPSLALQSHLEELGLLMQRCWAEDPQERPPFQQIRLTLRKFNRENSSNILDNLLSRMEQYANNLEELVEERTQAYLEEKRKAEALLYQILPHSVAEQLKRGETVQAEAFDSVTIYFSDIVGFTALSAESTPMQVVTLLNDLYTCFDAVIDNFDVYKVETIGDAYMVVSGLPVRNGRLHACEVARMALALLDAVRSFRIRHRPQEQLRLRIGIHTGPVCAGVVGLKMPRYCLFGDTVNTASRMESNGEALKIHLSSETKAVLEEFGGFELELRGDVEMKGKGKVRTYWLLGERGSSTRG

rat NPRA = molecular target: T2, rat NPRA (rat, UniProt P18910 29-1057); experiment: cell-based or functional assay
T2 sequence (looked up): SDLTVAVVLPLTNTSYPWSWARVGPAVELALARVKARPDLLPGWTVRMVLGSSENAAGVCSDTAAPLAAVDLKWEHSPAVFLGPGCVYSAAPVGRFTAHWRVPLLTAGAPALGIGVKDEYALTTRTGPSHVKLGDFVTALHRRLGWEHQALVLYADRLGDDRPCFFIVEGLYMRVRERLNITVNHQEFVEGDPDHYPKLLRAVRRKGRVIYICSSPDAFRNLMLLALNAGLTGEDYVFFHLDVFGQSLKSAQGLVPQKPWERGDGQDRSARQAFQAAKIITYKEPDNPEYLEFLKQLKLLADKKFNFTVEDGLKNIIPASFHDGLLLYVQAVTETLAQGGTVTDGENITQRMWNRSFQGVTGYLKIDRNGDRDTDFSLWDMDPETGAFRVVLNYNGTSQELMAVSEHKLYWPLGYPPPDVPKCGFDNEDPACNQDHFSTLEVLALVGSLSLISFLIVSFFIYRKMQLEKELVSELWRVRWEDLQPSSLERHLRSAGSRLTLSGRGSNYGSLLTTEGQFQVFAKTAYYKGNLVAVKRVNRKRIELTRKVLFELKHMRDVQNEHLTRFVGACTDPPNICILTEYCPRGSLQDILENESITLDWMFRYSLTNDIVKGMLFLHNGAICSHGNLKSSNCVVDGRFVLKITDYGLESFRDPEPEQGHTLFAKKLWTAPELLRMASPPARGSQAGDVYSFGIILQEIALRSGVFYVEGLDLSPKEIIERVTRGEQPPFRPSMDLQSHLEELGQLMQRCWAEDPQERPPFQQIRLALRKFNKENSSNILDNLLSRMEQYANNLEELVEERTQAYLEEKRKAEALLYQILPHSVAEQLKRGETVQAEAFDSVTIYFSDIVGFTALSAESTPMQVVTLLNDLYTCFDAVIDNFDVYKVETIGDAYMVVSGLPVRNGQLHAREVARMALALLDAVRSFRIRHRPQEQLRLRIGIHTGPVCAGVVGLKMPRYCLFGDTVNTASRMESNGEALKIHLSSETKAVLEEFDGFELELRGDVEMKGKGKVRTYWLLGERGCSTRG

Binder	cGMP Assay (EC50, pM) w/BSA (human NPRA) [pM]	cGMP Assay (EC50, pM) w/Casein (human NPRA) [pM]	cGMP Assay (EC50, pM) w/BSA (rat NPRA) [pM]	cGMP Assay (EC50, pM) w/Casein (rat NPRA) [pM]
{C20 diacid}-[γGlu]EKEKEKGKE[βAla]RSSCFGGRIDRIGHYSGLGCPSFRHGGPSSGAPPPS-NH2 (bridge 15-31 via thioacetal) [Example 58]	104000	1220	1.38e+06	7150
SLRRSSCFGGRIDRIGAQSGLGCNSFRY-NH2 (disulfide 7-23; N-terminus assumed; SMILES CC[C@H](C)[C@@H]1NC(=O)[C@H](CCCNC(=N)N)NC(=O)[C@H](CC(=O)O)NC(=O)[C@H]([C@@H](C)CC)NC(=O)[C@H](CCCNC(=N)N)NC(=O)CNC(=O)CNC(=O)[C@H](Cc2ccccc2)NC(=O)[C@@H](NC(=O)[C@H](CO)NC(=O)[C@H](CO)NC(=O)[C@H](CCCNC(=N)N)NC(=O)[C@H](CCCNC(=N)N)NC(=O)[C@H](CC(C)C)NC(=O)[C@@H](N)CO)CSSC[C@@H](C(=O)N[C@@H](CC(N)=O)C(=O)N[C@@H](CO)C(=O)N[C@@H](Cc2ccccc2)C(=O)N[C@@H](CCCNC(=N)N)C(=O)N[C@@H](Cc2ccc(O)cc2)C(N)=O)NC(=O)CNC(=O)[C@H](CC(C)C)NC(=O)CNC(=O)[C@H](CO)NC(=O)[C@H](CCC(N)=O)NC(=O)[C@H](C)NC(=O)CNC1=O) [rat ANP (amidated)]	138	128	114	73
{C20 diacid}-[γGlu]EKEKEKGEKGRSSCFGGRIDRIGHYSGLGCPSLRHGGPSSGAPPPS-NH2 (disulfide 15-31) [Example 51]	11100	361	82700	909
XEKEKEKGSXRRSSCFGGRIDRIGHQSGLGCPSFRHGGPSSGAPPPS (HOOC-(CH2)18-CO-(γGlu)-EKEKEKGS-4Pal-RRSS[CFGGRIDRIGHQSGLGC]PSFRHGGPSSGAPPPS-NH2; disulfide linkage between the bracketed Cys) [Example 1]	11600	335	81900	1810
XEKEKEKGSXRRSSCFGGRIDRIGHQSGLGCPSFRHGGPSSGAPPPS (HOOC-(CH2)18-CO-(γGlu)-EKEKEKGS-4Pal-RRSS[CFGGRIDRIGHQSGLGC]PSFRHGGPSSGAPPPS-NH2; thioacetal linkage between the bracketed Cys) [Example 2]	93400	1020	1.27e+06	14100
XEKEKEKGSKXRSSCFGGRIDRIGHYSGLGCPSFRHGGPSSGAPPPS (HOOC-(CH2)18-CO-(γGlu)-EKEKEKGSK-βAla-RSS[CFGGRIDRIGHYSGLGC]PSFRHGGPSSGAPPPS-NH2; thioacetal linkage between the bracketed Cys) [Example 65]		614		7420
SXRRSSCFGGRIDRIGHQSGLGCPSFRHGGPSSGAPPPS (HOOC-(CH2)18-CO-(γGlu)-EKEKEKG-PEG24-S-4Pal-RRSS[CFGGRIDRIGHQSGLGC]PSFRHGGPSSGAPPPS-NH2; thioacetal linkage between the bracketed Cys) [Example 61]	9000	912	463000	32000
{C20 diacid}-[γGlu]EKEKEKGS[4Pal]KRSSCFGGKIDRIGHQSGLGCPSFRHGPSSGAPPPS-NH2 (disulfide 15-31) [Example 33]	22200	199	112000	383
{C20 diacid}-[γGlu]EKEKEKGEK[βAla]RSSCFGGRIDRIGHYSGLGCPSLRHGGPSSGAPPPS-NH2 (bridge 15-31 via thioacetal) [Example 63]	63800	1090	785000	10600
{C20 diacid}-[γGlu]EKEKEKGEK[βAla]RSSCFGGRIDRIGHYSGLGCPSFRHGPSSGAPPPS-NH2 (bridge 15-31 via thioacetal) [Example 60]	81700	453	962000	4830
EKXRSSCFGKRIDRIGHQSGLGCPSFRHGGKSSGAPPPS (HOOC-(CH2)18-CO-(γGlu)-EKEKEKG-PEG24-EK-βAla-RSS[CFGKRIDRIGHQSGLGC]PSFRHGGKSSGAPPPS-NH2; thioacetal linkage between the bracketed Cys) [Example 3]	6920	980	959000	36600
{C20 diacid}-[γGlu]EKEKEKGEK[βAla]RSSCFGGRIDRIGHYSGLGCPSFRHGGPSSGAPPPS-NH2 (bridge 15-31 via thioacetal) [Example 56]	145000	855	1.38e+06	11200
{C20 diacid}-[γGlu]EKEKEKGEK[βAla]RSSCFGGRIDRIGHYSGLGCPSFRHGGPSSGAPPPS-NH2 (disulfide 15-31) [Example 54]	19300	369	77200	796
{C20 diacid}-[γGlu]EKEKEKGS[4Pal]KRSSCFGGKIDRIGHQSGLGCPSFRHKITAKEDE-NH2 (disulfide 15-31) [Example 34]	26100	291	422000	1200
{C20 diacid}-[γGlu]EKEKEKGS[4Pal]RRSSCFGGRIDRIGHQSGLGCPSFRHSGAPPPSE-NH2 (disulfide 15-31) [Example 39]	9970	276	93300	439
{C20 diacid}-[γGlu]EKEKEKGS[4Pal]RRSSCFGGRIGRIGHQSGLGCPSFRHGGPSSGAPPPS-NH2 (disulfide 15-31) [Example 29]	32200	482	1.91e+06	16800
